Where no end group is shown, it is not given here. [ ]: non-standard residue; d: D form. The star is where a group is joined. FITC = O=C1OC2(c3ccc(O)cc3Oc3cc(O)ccc32)c2ccc(NC(=S)*)cc21; pT = C[C@@H](OP(=O)(O)O)[C@H](N)C(=O)O; pS = N[C@@H](COP(=O)(O)O)C(=O)O; Aβ = not defined here
These binders were tested against MpIBP_RIII1-4 (Marinomonas primoryensis ice-binding protein, Region III domains 1-4), truncated construct ending at N507 (Marinomonas primoryensis) (assay: ITC).
AGYTD [AGYTD (unlabelled peptide)] showed a Kd of 67 nM and a stoichiometry N of 1. For AGATD [AGATD (unlabelled peptide)], the Kd was 86 nM and the stoichiometry N was 1. With AGAGD [AGAGD (unlabelled peptide)] the Kd was 1900 nM and the stoichiometry N was 1. AGYTS [AGYTS (unlabelled peptide)] showed a Kd of 59 nM and a stoichiometry N of 1.

Each binder was assayed against MpIBP_RIII1-4 (Marinomonas primoryensis ice-binding protein, Region III domains 1-4), truncated construct ending at N507 (Marinomonas primoryensis) (assay: fluorescence polarisation).
With {FITC}-IKARAS[pS]SPVILVGTHLD-OH [FITC-IKARAS(pS)…] the EC50 was 2700 nM. For {FITC-Aβ}-GPDSN (reading uncertain; also: printed as FITC-AβGPDSN) [FITC-AβGPDSN], the EC50 was 270 nM. Work on {FITC-Aβ}-DSTD (reading uncertain; also: printed as FITC-AβDSTD) [FITC-AβDSTD] yielded an EC50 of 110 nM. {FITC}-AGAGF [FITC-AGAGF] showed an EC50 of 7200 nM. {FITC}-RHKKLMFK[pT]EGPDSD-OH [FITC-RHKKLMFK(pT)EGPDSD] was tested, and the EC50 was 690 nM. Binder {FITC}-AGCTD [FITC-AGCTD] has an EC50 of 23 nM. With {FITC}-AGAGI [FITC-AGAGI] the EC50 was 4400 nM. Work on {FITC-Aβ}-GPDD (reading uncertain; also: printed as FITC-AβGPDD) [FITC-AβGPDD] yielded a fold by which FITC-AβGPDSD binds stronger than FITC-AβGPDD of 20 fold. In the case of {FITC}-AGAGD [FITC-AGAGD], the EC50 is reported as 3200 nM. Work on {FITC}-AGATD [FITC-AGATD] yielded an EC50 of 72 nM. {FITC}-AGWTD [FITC-AGWTD] showed an EC50 of 23 nM. With {FITC}-AGYTD [FITC-AGYTD] the EC50 was 29 nM. In the case of {FITC-Aβ}-DSTPD (reading uncertain; also: printed as FITC-AβDSTPD) [FITC-AβDSTPD], the EC50 is reported as 27000 nM and the affinity is reported as 26 µM. {FITC}-AGAGY [FITC-AGAGY] was tested, and the EC50 was 4600 nM. Binder {FITC}-AGYTS [FITC-AGYTS] has an EC50 of 30 nM. {FITC-Aβ}-GPDSD (reading uncertain; also: printed as FITC-AβGPDSD) [FITC-AβGPDSD] was tested, and the EC50 was 160 nM.

Biological target: MpIBP_RIII1-4 (Marinomonas primoryensis ice-binding protein, Region III domains 1-4), truncated construct ending at N507 (Marinomonas primoryensis)
Assay: fluorescence polarisation
Remark: another data set of the same source
{FITC}-AGAPD [FITC-AGAPD] showed an EC50 of 4600 nM. With {FITC}-AGAGD [FITC-AGAGD] the EC50 was 1500 nM. {FITC}-AGATD [FITC-AGATD] gave an EC50 of 89 nM. {FITC}-AGASD [FITC-AGASD] showed an EC50 of 310 nM. With {FITC}-AGAFD [FITC-AGAFD] the EC50 was 180 nM. {FITC}-AGAYD [FITC-AGAYD] gave an EC50 of 170 nM.
